In PMC5350102:
Like-named read-outs stand apart in the source and are kept apart here. Blank lines part the entries; values can stand above or below the substance they belong to.

Key:
GST-nNOS[1–155] (human) = GST-nNOS[1–155] (human) (UniProt P29475); experiment: pull-down; solid-phase no-wash binding assay: 5 μl beads bound to 1 μg GST-fused nNOS protein (or GST for background) rotated with His-TAT-NOS1AP peptides for 1 h at 4°C; unbound removed by centrifugation in filter plates, no wash; bound peptide quantified by fluorescent immunoblot; GST background subtracted; 1-site quadratic fit
nNOS [1] = biological target: nNOS (UniProt P29475); settings: cited from earlier work
His-nNOS[1–155] (human) = His-nNOS[1–155] (human) (UniProt P29475); experiment: fluorescence polarisation; competition FP: 1 μM F-GDLV, 4 μM His-nNOS(1–155), increasing competitor; approximate Kc (dissociation constant of the competitor, affinity for the nNOS PDZ pocket) from the single-site competition formula
nNOS [2] = biological target: nNOS (UniProt P29475); experiment: solid-phase no-wash assay; settings: cited from earlier work

Kd (GST-nNOS[1–155] (human)): 100 µM
Substance: His-TAT-NOS1AP[400–503] F431A, denatured (from UniProt O75052 400-503) (domain or fragment)

Substance: NOS1AP-9C
Kd (nNOS [1]): > 600 µM

Ki (His-nNOS[1–155] (human)): > 10 µM
Substance: NOS1AP[400–503] F431A cleaved from GST (from UniProt O75052 400-503) (domain or fragment)

Substance: TAT-NOS1AP 400-506 (from UniProt O75052)
Kd (nNOS [2]): 0.75 µM
